This note sets out measurements from patent publication US20120177651A1 (published 2012).

For assay [1], the target named is T1, recombinant human HGF (human, UniProt P14210 32-728). In words: cell-based or functional assay. Set-up: unit not given beside the values.
The target of another assay is T2, human VEGF (human, UniProt P15692-4 27-191, limits assumed).
T2 construct: The background says that VEGF-A isoforms form homodimers
In words: SPR (Biacore T100), antibody captured on Protein A C1 chip, human VEGF as analyte. For orientation: Surface plasmon resonance follows binding to a sensor surface in real time, without labels.

For assay [2], the target named is T1, recombinant human HGF. In words: SPR (Biacore T100), human HGF immobilised on CM5 chip, antibody as analyte, 1:1 binding model, 25 C.
Assay [3] concerns the target T1, recombinant human HGF. The experiment in a line: SPR (Biacore T100), human HGF immobilised on CM5 chip, antibody as analyte, bivalent analyte model, 25 C.
In assay [4] the target is T1, recombinant human HGF. The experiment in a line: ELISA on plate-coated recombinant human HGF, detection with anti-human kappa light chain peroxidase conjugate, Abs 490 nm.
For assay [5], the target named is T1, recombinant human HGF. The experiment in a line: cell-based or functional assay.

T1 sequence (P14210 32-728 limits assumed): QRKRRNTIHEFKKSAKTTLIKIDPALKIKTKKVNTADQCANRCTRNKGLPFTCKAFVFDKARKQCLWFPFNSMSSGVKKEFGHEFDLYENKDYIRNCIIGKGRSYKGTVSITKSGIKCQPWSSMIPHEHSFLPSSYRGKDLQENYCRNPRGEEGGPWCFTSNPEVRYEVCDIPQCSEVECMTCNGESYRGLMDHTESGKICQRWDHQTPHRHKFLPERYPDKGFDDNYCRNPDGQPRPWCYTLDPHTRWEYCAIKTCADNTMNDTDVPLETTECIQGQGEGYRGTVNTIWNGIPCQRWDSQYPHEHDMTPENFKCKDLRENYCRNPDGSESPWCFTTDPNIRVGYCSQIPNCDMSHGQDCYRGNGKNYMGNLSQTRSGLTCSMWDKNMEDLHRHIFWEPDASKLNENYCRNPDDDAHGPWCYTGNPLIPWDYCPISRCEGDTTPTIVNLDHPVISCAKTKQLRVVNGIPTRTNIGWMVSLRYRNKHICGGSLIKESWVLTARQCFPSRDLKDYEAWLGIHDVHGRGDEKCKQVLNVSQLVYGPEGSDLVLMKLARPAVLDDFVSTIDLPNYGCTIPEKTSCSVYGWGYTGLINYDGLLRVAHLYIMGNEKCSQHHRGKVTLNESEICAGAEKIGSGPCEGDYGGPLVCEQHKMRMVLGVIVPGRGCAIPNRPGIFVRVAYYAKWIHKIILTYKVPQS
T2 sequence (P15692 other isoform, or with tags, fused parts or gaps limits assumed): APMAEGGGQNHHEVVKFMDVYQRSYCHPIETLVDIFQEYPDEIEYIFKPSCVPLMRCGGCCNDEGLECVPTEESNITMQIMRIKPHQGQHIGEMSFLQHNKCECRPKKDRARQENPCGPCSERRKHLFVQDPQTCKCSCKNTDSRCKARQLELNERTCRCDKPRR

B1: BPC2013 (antibody, human IgG1, kappa, V domains shown)
VH: QVQLQESGPGLVKPSETLSLTCTVSGGSISIYYWSWIRQPPGKGLEWIGYVYYSGSTNYNPSLKSRVTISVDTSKNQFSLKLNSVTAADTAVYYCARGGYDFWSGYFDYWGQGTLVTVSS
VL: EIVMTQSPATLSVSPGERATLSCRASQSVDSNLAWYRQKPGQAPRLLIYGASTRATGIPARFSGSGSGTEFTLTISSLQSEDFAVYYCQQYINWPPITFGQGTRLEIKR
notes: Full human IgG1 (Fc wild type) / kappa anti-HGF antibody, expressed in HEK 293-6E cells; also called 2.12.1; anti-HGF mAb 2.12.1
Regarding B1, in the assay with recombinant human HGF [1], the “IC50, MET phosphorylation in Bx-PC3 cells (mean of three experiments)” value (shortened to “IC50, MET phosphorylation”) came to 3.6. The binding result in the assay with human VEGF was “no binding (tested: human VEGF up to 256 nM)”. Moreover, in the assay with recombinant human HGF [2], the Kd came to 0.88 nM, the koff (usually a measure of how fast the partners let go of each other) stood at 0.000122 s⁻¹ and the kon (commonly the rate constant with which the complex forms) was 140000 M⁻¹ s⁻¹. For the same molecule, in the assay with recombinant human HGF [3], the Kd was determined as 0.83 nM, the koff amounted to 0.000202 s⁻¹ and the kon is 242000 M⁻¹ s⁻¹. In addition, in the assay with recombinant human HGF [4], the EC50 (read off the curve) (usually the concentration giving half of the maximal effect) is roughly 1 nM.

B2: BPC2015 (antibody, human IgG1, kappa, V domains shown)
VH: EVQLVQSGAEVKKPGASVKVSCKVSGYTFSGNWIEWVRQAPGKGLEWIGEILPGSGNTNYNEKFKGKATMTADTSTDTAYMELSSLRSEDTAVYYCARGGHYYGSSWDYWGQGTLVTVSS
VL: DIVMTQSPSSLSASVGDRVTITCKASENVVTYVSWYQQKPGKAPKLLIYGASNRYTGVPDRFSGSGSGTDFTLTISSLQPEDFATYYCGQGYSYPYTFGQGTKLEIKR
notes: Full human IgG1 (Fc wild type) / kappa anti-HGF antibody, expressed in HEK 293-6E cells; also called HuL2G7; anti-HGF mAb HuL2G7
As to B2, in the assay with recombinant human HGF [5], the “IC50, % phospho AKT in Bx-PC3 cells (MSD, mean of two experiments)” value stood at 0.63 nM; the “IC50, % phospho ERK in Bx-PC3 cells (MSD, mean of two experiments)” value turned out to be 0.98 nM; the “IC50, % phospho MET in Bx-PC3 cells (MSD, mean of two experiments)” value came to 0.4 nM; the “IC50, Bx-PC3 cell migration with 25 ng/ml HGF (Oris, mean of three experiments)” value amounted to 0.33 nM. In addition, in the assay with recombinant human HGF [1], the “IC50, MET phosphorylation” value worked out at 4.2. In the assay with recombinant human HGF [2], the Kd was determined as 0.44 nM, the koff worked out at 8.19e-05 s⁻¹ and the kon turned out to be 186000 M⁻¹ s⁻¹. In the assay with recombinant human HGF [3], the Kd came out at 0.58 nM, the koff is 0.000132 s⁻¹ and the kon was found to be 228000 M⁻¹ s⁻¹. For the same molecule, in the assay with recombinant human HGF [4], the “EC50 (read off the curve)” value is roughly 0.7 nM.

B3: BPC2014 (antibody, human IgG1, kappa, V domains shown)
VH: QVQLVQPGAEVKKPGTSVKLSCKASGYTFTTYWMHWVRQAPGQGLEWIGEINPTNGHTNYNQKFQGRATLTVDKSTSTAYMELSSLRSEDTAVYYCARNYVGSIFDYWGQGTLVTVSS
VL: DIVMTQSPDSLAMSLGERVTLNCKASENVVSYVSWYQQKPGQSPKLLIYGASNRESGVPDRFSGSGSATDFTLTISSVQAEDVADYHCGQSYNYPYTFGQGTKLEIKR
notes: Full human IgG1 (Fc wild type) / kappa anti-HGF antibody, expressed in HEK 293-6E cells; also called HE2B8-4; anti-HGF mAb LRMR2B8
Turning to B3, the “IC50, MET phosphorylation” value with recombinant human HGF [1] worked out at 4.5. In addition, the binding result with human VEGF is recorded as “no binding (tested: human VEGF up to 256 nM)”. In the assay with recombinant human HGF [2], the Kd turned out to be 1.54 nM, the koff is 0.00011 s⁻¹ and the kon turned out to be 71400 M⁻¹ s⁻¹. Further, in the assay with recombinant human HGF [3], the Kd amounted to 1.62 nM, the koff stood at 0.000204 s⁻¹ and the kon was found to be 126000 M⁻¹ s⁻¹. For the same molecule, the “EC50 (read off the curve)” value with recombinant human HGF [4] was roughly 1 nM.
